# Measurements reported in patent US20200317768A1 (published 2020).
# T1: cynomolgus monkey FcγRIIa3 extracellular domain, His-tagged (cynomolgus monkey)
# T1 construct: also called cyno FcγRIIa3; cynoFcgRIIa3; not shown: C-terminal His-tag
# T1 chain: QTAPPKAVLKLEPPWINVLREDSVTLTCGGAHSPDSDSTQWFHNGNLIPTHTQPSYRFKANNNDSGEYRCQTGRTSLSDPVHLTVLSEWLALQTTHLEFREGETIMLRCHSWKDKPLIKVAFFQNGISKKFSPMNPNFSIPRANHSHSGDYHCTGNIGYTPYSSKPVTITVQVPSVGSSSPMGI
# T2: cynomolgus monkey FcγRIIIaS extracellular domain, His-tagged (cynomolgus monkey, UniProt Q8SPW2 21-206 at identity 1.00))
# T2 construct: also called cyno FcγRIIIaS; cynoFcγRIIIaS; not shown: C-terminal His-tag
# T2 chain: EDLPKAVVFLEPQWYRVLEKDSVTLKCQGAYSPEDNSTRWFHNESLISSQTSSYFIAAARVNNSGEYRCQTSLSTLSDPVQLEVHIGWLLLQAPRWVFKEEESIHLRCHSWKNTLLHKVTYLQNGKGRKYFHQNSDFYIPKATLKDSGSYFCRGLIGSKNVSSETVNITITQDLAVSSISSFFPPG
# T3: cynomolgus monkey FcγRIIb extracellular domain, His-tagged (cynomolgus monkey)
# T3 construct: also called cyno FcγRIIb; cynoFcγRIIb; not shown: C-terminal His-tag
# T3 chain: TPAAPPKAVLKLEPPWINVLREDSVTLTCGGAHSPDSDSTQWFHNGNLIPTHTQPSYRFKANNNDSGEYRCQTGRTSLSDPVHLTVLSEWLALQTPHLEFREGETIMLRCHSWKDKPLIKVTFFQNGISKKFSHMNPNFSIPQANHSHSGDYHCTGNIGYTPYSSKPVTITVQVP
# T4: cynomolgus monkey FcγRIIa1 extracellular domain, His-tagged (cynomolgus monkey)
# T4 construct: also called cyno FcγRIIa1; cynoFcgRIIa1; not shown: C-terminal His-tag
# T4 chain: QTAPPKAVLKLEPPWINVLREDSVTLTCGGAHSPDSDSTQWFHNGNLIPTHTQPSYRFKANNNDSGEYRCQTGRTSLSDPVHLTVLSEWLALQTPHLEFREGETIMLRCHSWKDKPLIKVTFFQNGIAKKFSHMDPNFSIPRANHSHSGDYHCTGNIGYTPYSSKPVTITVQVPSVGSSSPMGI
# T5: human FcγRIIaR extracellular domain, His-tagged (human, UniProt P12318 34-217)
# T5 construct: also called human FcγRIIa (type R); FcgRIIaR; not shown: C-terminal His-tag
# T5 chain: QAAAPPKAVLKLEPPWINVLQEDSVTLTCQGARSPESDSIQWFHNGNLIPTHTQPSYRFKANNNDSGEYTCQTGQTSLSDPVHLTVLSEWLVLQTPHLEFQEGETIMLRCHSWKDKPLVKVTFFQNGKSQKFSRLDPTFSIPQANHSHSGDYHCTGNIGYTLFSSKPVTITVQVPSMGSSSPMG
# T6: cynomolgus monkey FcγRIIa2 extracellular domain, His-tagged (cynomolgus monkey)
# T6 construct: also called cyno FcγRIIa2; cynoFcgRIIa2; not shown: C-terminal His-tag
# T6 chain: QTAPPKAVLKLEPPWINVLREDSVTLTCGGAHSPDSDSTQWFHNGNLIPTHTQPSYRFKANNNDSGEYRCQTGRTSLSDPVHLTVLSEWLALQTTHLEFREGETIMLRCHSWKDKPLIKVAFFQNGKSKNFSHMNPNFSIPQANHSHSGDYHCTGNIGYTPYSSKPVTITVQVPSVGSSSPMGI
# T7: human FcγRIIaH extracellular domain, His-tagged (human, UniProt P12318 34-217)
# T7 construct: also called human FcγRIIa (type H); FcgRIIaH; not shown: C-terminal His-tag
# T7 sequence: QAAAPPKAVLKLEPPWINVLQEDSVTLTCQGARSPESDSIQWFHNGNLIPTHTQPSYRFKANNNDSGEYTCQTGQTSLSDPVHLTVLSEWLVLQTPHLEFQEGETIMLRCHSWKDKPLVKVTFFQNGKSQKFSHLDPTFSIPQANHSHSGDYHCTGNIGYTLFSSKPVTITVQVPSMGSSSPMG
# T8: human FcγRIIb extracellular domain, His-tagged (human, UniProt P31994 43-217)
# T8 construct: also called FcgRIIb (human); not shown: C-terminal His-tag
# T8 sequence: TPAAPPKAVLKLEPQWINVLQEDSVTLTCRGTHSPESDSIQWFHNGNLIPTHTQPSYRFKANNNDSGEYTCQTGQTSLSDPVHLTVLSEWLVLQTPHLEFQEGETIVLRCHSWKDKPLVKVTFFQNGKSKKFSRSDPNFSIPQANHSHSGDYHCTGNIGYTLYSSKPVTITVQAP
# Key:
# [1] = biological target: T1, cynomolgus monkey FcγRIIa3 …; test: SPR (BIACORE), captured antibody, FcgR as analyte
# Method: (§1) The kinetic analysis of interactions between these antibodies and FcγR was carried out using BIACORE® T200 or BIACORE® 4000 (GE Healthcare). HBS-EP+ (GE Healthcare) was used as the running buffer, and the measurement temperature was set to 25° C. A chip produced by immobilizing Protein A. Protein A/G or mouse anti-human IgG kappa light chain (BD Biosciences) onto a Series S Sensor Chip CM4 or CM5 (GE Healthcare) by the amine-coupling method was used. […] After the measurement, the antibody captured on the chip was washed off by allowing reaction with 10 mM glycine-HCl, pH1.5 and 25 mM NaOH so that the chip was regenerated and used repeatedly. The sensorgrams obtained as measurement results were analyzed by the 1:1 Langmuir binding model using the BIACORE® Evaluation Software to calculate the binding rate constant ka (L/mol/s) and dissociation rate constant kd (l/s), and the dissociation constant KD (mol/L) was calculated from these values. […] Regarding such interactions, KD values were calculated using the following 1:1 binding model described in BIACORE® T100 Software Handbook BR1006-48 Edition AE.
# [2] = biological target: T2, cynomolgus monkey FcγRIIIaS …; test: SPR (BIACORE), captured antibody, FcgR as analyte
# Method: as §1
# [3] = biological target: T3, cynomolgus monkey FcγRIIb extracellular …; test: SPR (BIACORE), captured antibody, FcgR as analyte
# Method: as §1
# [4] = biological target: T4, cynomolgus monkey FcγRIIa1 …; test: SPR (BIACORE), captured antibody, FcgR as analyte
# Method: as §1
# [5] = biological target: T9, human FcγRIIIaV extracellular domain, His-tagged (human, UniProt P08637 17-208); test: SPR (BIACORE), captured antibody, FcgR as analyte
# T9 construct: also called FcgRIIIaV; not shown: C-terminal His-tag
# Method: as §1
# [6] = biological target: T5, human FcγRIIaR extracellular domain, …; test: SPR (BIACORE), captured antibody, FcgR as analyte
# Method: as §1
# [7] = biological target: T6, cynomolgus monkey FcγRIIa2 …; test: SPR (BIACORE), captured antibody, FcgR as analyte
# Method: as §1
# [8] = biological target: T7, human FcγRIIaH extracellular domain, …; test: SPR (BIACORE), captured antibody, FcgR as analyte
# Method: as §1
# [9] = biological target: T8, human FcγRIIb extracellular domain, …; test: SPR (BIACORE), captured antibody, FcgR as analyte
# Method: as §1
# [10] = biological target: T6, cynomolgus monkey FcγRIIa2 …; test: SPR (BIACORE); KD of SG1 divided by KD of variant
# Method: as §1
# T9 sequence (P08637 17-208 F176V): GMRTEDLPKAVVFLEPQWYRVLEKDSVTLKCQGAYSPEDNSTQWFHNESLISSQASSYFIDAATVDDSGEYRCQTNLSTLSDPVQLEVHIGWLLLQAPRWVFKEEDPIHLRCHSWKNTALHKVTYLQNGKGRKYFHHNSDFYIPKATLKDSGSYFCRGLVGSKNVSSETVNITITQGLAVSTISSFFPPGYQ
Binder,Kd [1] [nM],Kd [2] [nM],Kd [3] [nM],Kd [4] [nM],Kd [5] [nM],Kd [6] [nM],Kd [7] [nM],Kd [8] [nM],Kd [9] [nM],KD fold (SG1 = 1) [10] [fold]
"MS_M103205H795-SG1/M103202L889-SK1 (antibody, human IgG1, kappa, Parent antibody with heavy chain constant region SG1; also called MS1032LO06-SG1; copies: 2 + 2) heavy: not shown light: DIVMTQSPATLSLSPGERATLSCTSSQSVYHANWLSWFQQKPGQPPKLLIYWASTLAYGVPSRFSGSGSGTDFTLTISSLQPEDAATYYCAGGYGGGRYAFGQGTKVEIKRTVAAPSVFIFPPSDEQLKSGTASVVCLLNNFYPREAKVQWKVDNALQSGNSQESVTEQDSKDSTYSLSSTLTLSKADYEKHKVYACEVTHQGLSSPVTKSFNRGEC",17000,360,1800,3200,810,1100,5100,690,4600,1
"M103205H795-MY265/M103202L889-SK1 (antibody, human IgG1, kappa, also called MS103205H795-MY265; copies: 2 + 2) heavy: QVTLKESGPVLVKPTETLTLTCTVSGIDLSHDDISWVRQAPGKGLEWVGIISYAGSTYYASWAKGRLTISKDTSKNQVVLTMTNMDPVDTATYYCARGVPAYSHGGDLWGQGTLVTVSSASTKGPSVFPLAPSSKSTSGGTAALGCLVKDYFPEPVTVSWNSGALTSGVHTFPAVLQSSGLYSLSSVVTVPSSSLGTQTYICNVNHKPSNTKVDKKVEPKSCDKTHTCPPCPAPELLTGPSVFLFPPKPKDTLMISRTPEVTCVVVDVSDEDPEVKFNWYVDGVEVHNAKTKPREEQYNSTYRVVSVLTVLHQDWLNGKEYKCKVSNKALPKPIEKTISKAKGQPREPQVYTLPPSREEMTKNQVSLTCLVKGFYPSDIAVEWESNGQPENNYKTTPPVLDSDGSFFLYSKLTVDKSRWQQGNVFSCSVMHEALHNHYTQKSLSLSP light: DIVMTQSPATLSLSPGERATLSCTSSQSVYHANWLSWFQQKPGQPPKLLIYWASTLAYGVPSRFSGSGSGTDFTLTISSLQPEDAATYYCAGGYGGGRYAFGQGTKVEIKRTVAAPSVFIFPPSDEQLKSGTASVVCLLNNFYPREAKVQWKVDNALQSGNSQESVTEQDSKDSTYSLSSTLTLSKADYEKHKVYACEVTHQGLSSPVTKSFNRGEC",4800,2000,590,2200,54000,440,1900,210,2200,2.7

# Continued, values first:
Kd [1] [nM],Kd [2] [nM],Kd [3] [nM],Kd [4] [nM],Kd [5] [nM],Kd [6] [nM],Kd [7] [nM],Kd [8] [nM],Kd [9] [nM],KD fold (SG1 = 1) [10] [fold],Binder
8000,2600,880,3800,8100,650,3300,360,2800,1.5,"M103205H795-MY441/M103202L889-SK1 (antibody, human IgG1, kappa, copies: 2 + 2) heavy: QVTLKESGPVLVKPTETLTLTCTVSGIDLSHDDISWVRQAPGKGLEWVGIISYAGSTYYASWAKGRLTISKDTSKNQVVLTMTNMDPVDTATYYCARGVPAYSHGGDLWGQGTLVTVSSASTKGPSVFPLAPSSKSTSGGTAALGCLVKDYFPEPVTVSWNSGALTSGVHTFPAVLQSSGLYSLSSVVTVPSSSLGTQTYICNVNHKPSNTKVDKKVEPKSCDKTHTCPPCPAAELLTGPSVFLFPPKPKDTLMISRTPEVTCVVVDVSDEDPEVKFNWYVDGVEVHNAKTKPREEQYNSTYRVVSVLTVLHQDWLNGKEYKCKVSNKALPKPIEKTISKAKGQPREPQVYTLPPSREEMTKNQVSLTCLVKGFYPSDIAVEWESNGQPENNYKTTPPVLDSDGSFFLYSKLTVDKSRWQQGNVFSCSVMHEALHNHYTQKSLSLSP light: DIVMTQSPATLSLSPGERATLSCTSSQSVYHANWLSWFQQKPGQPPKLLIYWASTLAYGVPSRFSGSGSGTDFTLTISSLQPEDAATYYCAGGYGGGRYAFGQGTKVEIKRTVAAPSVFIFPPSDEQLKSGTASVVCLLNNFYPREAKVQWKVDNALQSGNSQESVTEQDSKDSTYSLSSTLTLSKADYEKHKVYACEVTHQGLSSPVTKSFNRGEC"
6800,2100,1100,4400,4700,420,4200,460,1800,1.2,"M103205H795-MY442/M103202L889-SK1 (antibody, human IgG1, kappa, copies: 2 + 2) heavy: QVTLKESGPVLVKPTETLTLTCTVSGIDLSHDDISWVRQAPGKGLEWVGIISYAGSTYYASWAKGRLTISKDTSKNQVVLTMTNMDPVDTATYYCARGVPAYSHGGDLWGQGTLVTVSSASTKGPSVFPLAPSSKSTSGGTAALGCLVKDYFPEPVTVSWNSGALTSGVHTFPAVLQSSGLYSLSSVVTVPSSSLGTQTYICNVNHKPSNTKVDKKVEPKSCDKTHTCPPCPADELLTGPSVFLFPPKPKDTLMISRTPEVTCVVVDVSDEDPEVKFNWYVDGVEVHNAKTKPREEQYNSTYRVVSVLTVLHQDWLNGKEYKCKVSNKALPKPIEKTISKAKGQPREPQVYTLPPSREEMTKNQVSLTCLVKGFYPSDIAVEWESNGQPENNYKTTPPVLDSDGSFFLYSKLTVDKSRWQQGNVFSCSVMHEALHNHYTQKSLSLSP light: DIVMTQSPATLSLSPGERATLSCTSSQSVYHANWLSWFQQKPGQPPKLLIYWASTLAYGVPSRFSGSGSGTDFTLTISSLQPEDAATYYCAGGYGGGRYAFGQGTKVEIKRTVAAPSVFIFPPSDEQLKSGTASVVCLLNNFYPREAKVQWKVDNALQSGNSQESVTEQDSKDSTYSLSSTLTLSKADYEKHKVYACEVTHQGLSSPVTKSFNRGEC"
